The data set concerns the molecule itself. Description: native gel or EMSA; increasing amounts of purified protein (0-200 pmol) incubated with 2 pmol in vitro transcribed 3'UTR fragments of C/EBPβ mRNA; 25 mM Tris, 150 mM NaCl, 2.5 mM MgCl2, 2.5 mM DTT, 0.5 mM EDTA, 0.025 mM ZnCl2, pH 8.3; on ice 20 min; 0.8% agarose gel in TAE; oligomers read from heavier protein-RNA complexes. On the technique in general: A gel shift assay detects complexes by their altered migration in electrophoresis.

B1: Full length human MCPIP1 (D141N) recombinant protein (enzyme, UniProt Q5D1E8 1-599, looked up)
chain: MSGPCGEKPVLEASPTMSLWEFEDSHSRQGTPRPGQELAAEEASALELQMKVDFFRKLGYSSTEIHSVLQKLGVQADTNTVLGELVKHGTATERERQTSPDPCPQLPLVPRGGGTPKAPNLEPPLPEEEKEGSDLRPVVINGSNVAMSHGNKEVFSCRGILLAVNWFLERGHTDITVFVPSWRKEQPRPDVPITDQHILRELEKKKILVFTPSRRVGGKRVVCYDDRFIVKLAYESDGIVVSNDTYRDLQGERQEWKRFIEERLLMYSFVNDKFMPPDDPLGRHGPSLDNFLRKKPLTLEHRKQPCPYGRKCTYGIKCRFFHPERPSCPQRSVADELRANALLSPPRAPSKDKNGRRPSPSSQSSSLLTESEQCSLDGKKLGAQASPGSRQEGLTQTYAPSGRSLAPSGGSGSSFGPTDWLPQTLDSLPYVSQDCLDSGIGSLESQMSELWGVRGGGPGEPGPPRAPYTGYSPYGSELPATAAFSAFGRAMGAGHFSVPADYPPAPPAFPPREYWSEPYPLPPPTSVLQEPPVQSPGAGRSPWGRAGSLAKEQASVYTKLCGVFPPHLVEAVMGRFPQLLDPQQLAAEILSYKSQHPSE
notes: Monocyte chemoattractant protein-1-induced protein 1 (MCPIP1, Regnase-1), human, full length; point mutation D141N in the PIN domain abolishes RNase activity; also called Regnase-1 D141N; source: recombinant, purified
For the protein B1, the binding result is reported as “binds”.

Source of the values: PMC5362230, “MCPIP1, alias Regnase-1 binds and cleaves mRNA of C/EBPβ” (PLoS ONE, 2017).
